Article PMC4337721 (2015)

B1: Perk luminal domain region II–IV (printed residues 54–403) (domain or fragment)
chain: LVIISTLDGRIAALDPENHGKKQWDLDVGSGSLVSSSLSKPEVFGNKMIIPSLDGALFQWDQDRESMETVPFTVESLLESSYKFGDDVVLVGGKSLTTYGLSAYSGKVRYICSALGCRQWDSDEMEQEEDILLLQRTQKTVRAVGPRSGNEKWNFSVGHFELRYIPDMETRAGFIESTFKPNENTEESKIISDVEEQEAAIMDIVIKVSVADWKVMAFSKKGGHLEWEYQFCTPIASAWLLKDGKVIPISLFDDTSYTSNDDVLEDEEDIVEAARGATENSVYLGMYRGQLYLQSSVRI
B2: Ire1 luminal domain region II–IV (residues 32–390) (domain or fragment)
chain: LLFVSTLDGSLHAVSKRTGSIKWTLKEDPVLQVPTHVEEPAFLPDPNDGSLYTLGSKNNEGLTKLPFTIPELVQASPCRSSDGILYMGKKQDIWYVIDLLTGEKQQTLSSAFADSLCPSTSLLYLGRTEYTITMYDTKTRELRWNATYFDYAASLPEDDVDYKMSHFVSNGDGLVVTVDSESGDVLWIQNYASPVVAFYVWQREGLRKVMHINVAVETLRYLTFMSGEVGRITKWKYPFPKETEAKSKLTPTLYVGKYSTSLYASPSMVHEGVAVVPRGSTLPLLEGPQTDGVTIGDKGECVITPSTDVKFDPGLKSKNKLNYLRNYWLLIGHHETPLSASTKMLERFPNNLPKHRENV
B3: Ire1 luminal domain, complete (region I–V, residues 24–440) (domain or fragment)
chain: STVTLPETLLFVSTLDGSLHAVSKRTGSIKWTLKEDPVLQVPTHVEEPAFLPDPNDGSLYTLGSKNNEGLTKLPFTIPELVQASPCRSSDGILYMGKKQDIWYVIDLLTGEKQQTLSSAFADSLCPSTSLLYLGRTEYTITMYDTKTRELRWNATYFDYAASLPEDDVDYKMSHFVSNGDGLVVTVDSESGDVLWIQNYASPVVAFYVWQREGLRKVMHINVAVETLRYLTFMSGEVGRITKWKYPFPKETEAKSKLTPTLYVGKYSTSLYASPSMVHEGVAVVPRGSTLPLLEGPQTDGVTIGDKGECVITPSTDVKFDPGLKSKNKLNYLRNYWLLIGHHETPLSASTKMLERFPNNLPKHRENVIPADSEKKSFEEVINLVDQTSENAPTTVSRDVEEKPAHAPARPEAPVDSM
B4: Perk luminal domain region II–V (residues 105–509) (domain or fragment)
chain: LVIISTLDGRIAALDPENHGKKQWDLDVGSGSLVSSSLSKPEVFGNKMIIPSLDGALFQWDQDRESMETVPFTVESLLESSYKFGDDVVLVGGKSLTTYGLSAYSGKVRYICSALGCRQWDSDEMEQEEDILLLQRTQKTVRAVGPRSGNEKWNFSVGHFELRYIPDMETRAGFIESTFKPNENTEESKIISDVEEQEAAIMDIVIKVSVADWKVMAFSKKGGHLEWEYQFCTPIASAWLLKDGKVIPISLFDDTSYTSNDDVLEDEEDIVEAARGATENSVYLGMYRGQLYLQSSVRISEKFPSSPKALESVTNENAIIPLPTIKWKPLIHSPSRTPVLVGSDEFDKCLSNDKFSHEEYSNGALSILQYPYDNGYYLPYYKRERNKRSTQITVRFLDNPHYNKN
B5: Ire1 luminal domain region II–V (residues 32–440) (domain or fragment)
chain: LLFVSTLDGSLHAVSKRTGSIKWTLKEDPVLQVPTHVEEPAFLPDPNDGSLYTLGSKNNEGLTKLPFTIPELVQASPCRSSDGILYMGKKQDIWYVIDLLTGEKQQTLSSAFADSLCPSTSLLYLGRTEYTITMYDTKTRELRWNATYFDYAASLPEDDVDYKMSHFVSNGDGLVVTVDSESGDVLWIQNYASPVVAFYVWQREGLRKVMHINVAVETLRYLTFMSGEVGRITKWKYPFPKETEAKSKLTPTLYVGKYSTSLYASPSMVHEGVAVVPRGSTLPLLEGPQTDGVTIGDKGECVITPSTDVKFDPGLKSKNKLNYLRNYWLLIGHHETPLSASTKMLERFPNNLPKHRENVIPADSEKKSFEEVINLVDQTSENAPTTVSRDVEEKPAHAPARPEAPVDSM
B6: Perk luminal domain, complete (region I–V, residues 54–509) (domain or fragment)
chain: TSATRVPAAGAVAAAEVTVEDAEALPAAAGEQEPRGPEPDDETELRPRGRSLVIISTLDGRIAALDPENHGKKQWDLDVGSGSLVSSSLSKPEVFGNKMIIPSLDGALFQWDQDRESMETVPFTVESLLESSYKFGDDVVLVGGKSLTTYGLSAYSGKVRYICSALGCRQWDSDEMEQEEDILLLQRTQKTVRAVGPRSGNEKWNFSVGHFELRYIPDMETRAGFIESTFKPNENTEESKIISDVEEQEAAIMDIVIKVSVADWKVMAFSKKGGHLEWEYQFCTPIASAWLLKDGKVIPISLFDDTSYTSNDDVLEDEEDIVEAARGATENSVYLGMYRGQLYLQSSVRISEKFPSSPKALESVTNENAIIPLPTIKWKPLIHSPSRTPVLVGSDEFDKCLSNDKFSHEEYSNGALSILQYPYDNGYYLPYYKRERNKRSTQITVRFLDNPHYNKN
B7: Perk luminal domain region I–IV (residues 54–403) (domain or fragment)
chain: TSATRVPAAGAVAAAEVTVEDAEALPAAAGEQEPRGPEPDDETELRPRGRSLVIISTLDGRIAALDPENHGKKQWDLDVGSGSLVSSSLSKPEVFGNKMIIPSLDGALFQWDQDRESMETVPFTVESLLESSYKFGDDVVLVGGKSLTTYGLSAYSGKVRYICSALGCRQWDSDEMEQEEDILLLQRTQKTVRAVGPRSGNEKWNFSVGHFELRYIPDMETRAGFIESTFKPNENTEESKIISDVEEQEAAIMDIVIKVSVADWKVMAFSKKGGHLEWEYQFCTPIASAWLLKDGKVIPISLFDDTSYTSNDDVLEDEEDIVEAARGATENSVYLGMYRGQLYLQSSVRI
B8: Ire1 luminal domain region I–IV (residues 24–390) (domain or fragment)
chain: STVTLPETLLFVSTLDGSLHAVSKRTGSIKWTLKEDPVLQVPTHVEEPAFLPDPNDGSLYTLGSKNNEGLTKLPFTIPELVQASPCRSSDGILYMGKKQDIWYVIDLLTGEKQQTLSSAFADSLCPSTSLLYLGRTEYTITMYDTKTRELRWNATYFDYAASLPEDDVDYKMSHFVSNGDGLVVTVDSESGDVLWIQNYASPVVAFYVWQREGLRKVMHINVAVETLRYLTFMSGEVGRITKWKYPFPKETEAKSKLTPTLYVGKYSTSLYASPSMVHEGVAVVPRGSTLPLLEGPQTDGVTIGDKGECVITPSTDVKFDPGLKSKNKLNYLRNYWLLIGHHETPLSASTKMLERFPNNLPKHRENV

Key:
[1] = target: BiP ATPase domain (residues 28–405), His6-tag removed (human, UniProt P11021 28-405); assay: MST
Sequence of BiP ATPase domain (residues 28–405), His6-tag removed (P11021 28-405): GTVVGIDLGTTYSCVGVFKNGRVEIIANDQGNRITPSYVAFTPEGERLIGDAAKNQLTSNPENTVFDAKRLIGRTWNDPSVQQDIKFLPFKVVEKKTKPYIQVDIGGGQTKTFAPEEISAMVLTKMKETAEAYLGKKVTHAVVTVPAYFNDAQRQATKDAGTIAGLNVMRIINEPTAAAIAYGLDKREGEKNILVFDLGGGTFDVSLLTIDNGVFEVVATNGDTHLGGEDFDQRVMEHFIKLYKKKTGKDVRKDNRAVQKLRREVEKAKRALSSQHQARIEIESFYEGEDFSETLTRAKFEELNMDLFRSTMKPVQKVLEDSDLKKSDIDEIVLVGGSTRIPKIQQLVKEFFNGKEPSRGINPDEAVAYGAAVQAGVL

[2] = target: T1, full-length BiP (BiP FL, residues 28–654), His6-tag removed (human, UniProt P11021 28-654); assay: MST; 10 mM ATP
T1 sequence (P11021 28-654): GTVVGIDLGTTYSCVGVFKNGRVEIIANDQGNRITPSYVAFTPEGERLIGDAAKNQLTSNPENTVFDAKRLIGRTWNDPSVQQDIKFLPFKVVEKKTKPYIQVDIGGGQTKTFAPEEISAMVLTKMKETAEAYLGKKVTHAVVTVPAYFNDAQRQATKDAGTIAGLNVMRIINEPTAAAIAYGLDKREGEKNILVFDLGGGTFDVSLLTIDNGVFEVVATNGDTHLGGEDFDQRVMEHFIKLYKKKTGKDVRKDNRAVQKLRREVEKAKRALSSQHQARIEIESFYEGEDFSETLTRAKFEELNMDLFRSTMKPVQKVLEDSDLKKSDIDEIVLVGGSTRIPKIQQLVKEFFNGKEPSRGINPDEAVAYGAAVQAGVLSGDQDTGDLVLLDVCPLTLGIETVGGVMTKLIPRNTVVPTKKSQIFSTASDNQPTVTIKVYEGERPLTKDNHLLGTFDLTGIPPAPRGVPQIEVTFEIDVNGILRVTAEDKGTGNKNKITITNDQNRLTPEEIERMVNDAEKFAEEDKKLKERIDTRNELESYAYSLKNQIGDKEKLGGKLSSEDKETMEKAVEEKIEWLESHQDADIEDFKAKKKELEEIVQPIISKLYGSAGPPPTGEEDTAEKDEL

[3] = target: T1, full-length BiP (BiP FL, residues …); assay: MST; no nucleotide
[4] = target: T1, full-length BiP (BiP FL, residues …); assay: MST; 10 mM ADP
[5] = target: T1, full-length BiP (BiP FL, residues …); assay: MST; 10 mM AMPPNP

Row | Binder | Kd [1] | Kd [2] | Kd [3] | Kd [4] | Kd [5]
1 | B1 | 2280 nM |  |  |  | 
2 | B2 | 1550 nM |  |  |  | 
3 | B3 |  | 1090 nM | 1920 nM | 1200 nM | 1140 nM
4 | B4 | 2690 nM |  |  |  | 
5 | B5 | 2020 nM |  |  |  | 
6 | B6 |  | 830 nM | 1340 nM | 1370 nM | 850 nM
7 | B7 | 2350 nM |  |  |  | 
8 | B8 | 1860 nM |  |  |  | 
